Experiment [1] has as its target T1, human LILRB2 expressed on cells (human, UniProt Q8N423 22-597).
T1 construct: In 293T cells it was expressed from pCMV3-LILRB2-GFP; also called CHO-LILRB2; Jurkat-LILRB2
The experiment in a line: flow cytometry, Jurkat-LILRB2 cells. (A flow cytometer gives signals particle by particle.)

The target of experiment [2] is T2, human LILRB1 expressed on cells (human, UniProt Q8NHL6 24-650).
T2 construct: In 293T cells it was expressed from pCMV3-LILRB1-GFP; also called CHO-LILRB1; Jurkat-LILRB1
As to the kind of experiment: flow cytometry, Jurkat-LILRB1 cells.

Experiment [3] concerns the target T1, human LILRB2 expressed on cells. The experiment in a line: flow cytometry on CHO-LILRB2 cells (CHO-RB2), titrated antibody, labelled anti-human Fc, gMFI.
In experiment [4] the target is T3, cynomolgus (monkey) LILRB2 expressed on CHO cells (cynomolgus monkey).
T3 construct: whole, on cells; Putative orthologue; also called cynoLILRB2; cynoRB2
As to the kind of experiment: flow cytometry on CHO-cynoLILRB2 cells.

The target in experiment [5] is T3, cynomolgus (monkey) LILRB2 expressed on …. As to the kind of experiment: flow cytometry on CHO-cynoLILRB2 cells, non-linear fit of the curves of FIG. 26D.
Experiment [6] has as its target T4, LILRB1-ECD-HIS (SinoBiological Cat #: 16014-H02H) (human, UniProt Q8NHL6 24-461).
T4 construct: Bought protein; also called monomeric antigen LILRB1-ECD-HIS; not shown: His tag
As to the kind of experiment: SPR (Carterra), LILRB1-ECD-his.

The target of experiment [7] is T2, human LILRB1 expressed on cells. As to the kind of experiment: flow cytometry on CHO-LILRB1 cells (CHO-RB1), titrated antibody, labelled anti-human Fc, gMFI.
Experiment [8] addresses T5, LILRB3 expressed on cells (human, UniProt O75022 24-631).
T5 construct: whole, on cells; Expressed with a GFP tag from the bought plasmid; also called human LILRB3; CHO-LILRB3
As to the kind of experiment: flow cytometry on CHO-LILRB3 cells, non-linear fit of the curves of FIG. 26C.

For experiment [9], the target named is T4, LILRB1-ECD-HIS (SinoBiological Cat #: …). As to the kind of experiment: BLI (Gator), RB1-ECD-his.
For experiment [10], the target named is T6, LILRB2-ECD-HIS (SinoBiological Cat #: 14132-H02H) (human, UniProt Q8N423 22-460).
T6 construct: Bought protein; also called monomeric antigen LILRB2-ECD-HIS; not shown: His tag
The experiment in a line: BLI (Gator), trace labelled 5 µg/mL; unit taken from the Average KD line.

Experiment [11] concerns the target T7, LILRA1 expressed on cells (human, UniProt O75019 17-489).
T7 construct: whole, on cells; GFP-tagged; also called human LILRA1; CHO-LILRA1
The experiment in a line: flow cytometry on CHO-LILRA1 cells (CHO-RA1), titrated antibody, labelled anti-human Fc, gMFI.

Experiment [12] addresses T8, LILRA5 expressed on 293T cells (UniProt A6NI73 42-299, limits assumed).
T8 construct: whole, on cells; GFP-tagged, transient
As to the kind of experiment: flow cytometry on 293T cells transiently expressing LILRA5, APC anti-human Fc; gMFI as fold to IgG staining.

The target in experiment [13] is T2, human LILRB1 expressed on cells. As to the kind of experiment: flow cytometry on CHO-LILRB1 cells, non-linear fit of the curves of FIG. 26A.
For experiment [14], the target named is T6, LILRB2-ECD-HIS (SinoBiological Cat #: …). As to the kind of experiment: BLI (Gator), trace labelled 0.5 µg/mL; unit taken from the Average KD line.
Experiment [15] concerns the target T1, human LILRB2 expressed on cells. As to the kind of experiment: flow cytometry, Jurkat-LILRB2 cells. The source holds these as a separate data set.
Experiment [16] deals with T9, LILRA4 expressed on 293T cells (UniProt P59901 24-499, limits assumed).
T9 construct: whole, on cells; GFP-tagged, transient
The experiment in a line: flow cytometry on 293T cells transiently expressing LILRA4, antibody 5 µg/mL, APC anti-human Fc; gMFI as fold to IgG staining.

The target in experiment [17] is T2, human LILRB1 expressed on cells. The experiment in a line: flow cytometry, CHO-LILRB1 cells.
The target is the same in experiment [18]. The experiment in a line: flow cytometry, CHO-LILRB1 cells; blocked ligand: APC HLA-G trimer tetramer.
The target in experiment [19] is T4, LILRB1-ECD-HIS (SinoBiological Cat #: …). The experiment in a line: BLI (Gator), trace labelled 2 µg/mL; unit taken from the Average KD line.

The EC50 (read off the curve) is the concentration that produces a half-maximal response. For orientation: EC50 means the concentration at which the effect is half-maximal. The low end stands for a more potent agent, the high end for a less potent agent. One may read the Kd as the free concentration of one partner at which half of the binding sites on the other are occupied at equilibrium, for simple one-to-one binding. One may read the koff as a measure of how fast the partners let go of each other. Low readings indicate a long-lived complex, high ones a short-lived complex. A word on the kon: it is the rate constant with which the complex forms. Higher therefore signals faster complex formation. The term IC50 denotes the concentration that inhibits the measured activity by half. A low value points to higher potency.

T4 sequence (Q8NHL6 other isoform, or with tags, fused parts or gaps H02H H02H): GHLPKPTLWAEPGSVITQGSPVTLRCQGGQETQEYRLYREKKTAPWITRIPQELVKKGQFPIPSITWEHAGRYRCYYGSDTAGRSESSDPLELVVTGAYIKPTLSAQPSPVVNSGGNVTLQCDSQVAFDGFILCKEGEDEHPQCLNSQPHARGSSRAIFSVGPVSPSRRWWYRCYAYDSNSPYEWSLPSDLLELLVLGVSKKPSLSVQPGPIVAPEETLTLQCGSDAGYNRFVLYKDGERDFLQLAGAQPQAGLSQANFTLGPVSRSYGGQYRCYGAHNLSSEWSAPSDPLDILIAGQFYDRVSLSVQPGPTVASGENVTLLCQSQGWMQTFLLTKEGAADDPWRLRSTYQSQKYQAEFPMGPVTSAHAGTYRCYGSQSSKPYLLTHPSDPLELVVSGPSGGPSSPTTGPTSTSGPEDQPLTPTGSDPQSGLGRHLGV
T1 sequence (Q8N423 other isoform, or with tags, fused parts or gaps limits assumed): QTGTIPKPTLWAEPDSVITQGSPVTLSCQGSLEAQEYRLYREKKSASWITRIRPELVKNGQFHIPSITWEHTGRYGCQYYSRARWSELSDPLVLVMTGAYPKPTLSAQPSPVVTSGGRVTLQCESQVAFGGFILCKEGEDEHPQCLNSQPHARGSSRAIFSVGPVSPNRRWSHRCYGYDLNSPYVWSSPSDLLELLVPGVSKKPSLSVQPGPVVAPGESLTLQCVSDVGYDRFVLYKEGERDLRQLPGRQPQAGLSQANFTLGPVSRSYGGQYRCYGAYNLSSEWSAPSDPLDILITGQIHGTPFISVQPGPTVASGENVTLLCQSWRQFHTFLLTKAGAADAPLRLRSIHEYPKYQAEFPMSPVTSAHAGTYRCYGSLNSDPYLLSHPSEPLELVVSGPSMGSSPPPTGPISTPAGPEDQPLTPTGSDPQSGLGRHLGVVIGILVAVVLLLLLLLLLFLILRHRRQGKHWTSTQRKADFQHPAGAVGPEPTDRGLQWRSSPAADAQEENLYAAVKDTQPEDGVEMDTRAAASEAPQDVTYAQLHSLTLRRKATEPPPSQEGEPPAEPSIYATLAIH
T2 sequence (Q8NHL6 other isoform, or with tags, fused parts or gaps limits assumed): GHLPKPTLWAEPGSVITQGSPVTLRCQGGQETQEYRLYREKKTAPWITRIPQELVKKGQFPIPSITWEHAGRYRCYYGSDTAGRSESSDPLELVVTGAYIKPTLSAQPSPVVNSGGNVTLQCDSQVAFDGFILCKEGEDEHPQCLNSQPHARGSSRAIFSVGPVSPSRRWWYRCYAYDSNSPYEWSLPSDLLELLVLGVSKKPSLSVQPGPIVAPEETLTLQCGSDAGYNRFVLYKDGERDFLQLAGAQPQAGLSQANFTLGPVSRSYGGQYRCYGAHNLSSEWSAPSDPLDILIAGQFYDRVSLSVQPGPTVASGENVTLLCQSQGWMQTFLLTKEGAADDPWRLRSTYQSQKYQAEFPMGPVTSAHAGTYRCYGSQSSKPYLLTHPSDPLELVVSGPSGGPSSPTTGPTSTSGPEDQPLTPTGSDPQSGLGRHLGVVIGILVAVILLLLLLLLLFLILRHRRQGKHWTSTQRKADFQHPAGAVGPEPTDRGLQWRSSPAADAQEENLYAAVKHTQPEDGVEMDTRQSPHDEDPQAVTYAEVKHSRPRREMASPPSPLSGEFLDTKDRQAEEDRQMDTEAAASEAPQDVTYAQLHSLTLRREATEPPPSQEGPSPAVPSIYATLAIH
T6 sequence (Q8N423 other isoform, or with tags, fused parts or gaps H02H H02H): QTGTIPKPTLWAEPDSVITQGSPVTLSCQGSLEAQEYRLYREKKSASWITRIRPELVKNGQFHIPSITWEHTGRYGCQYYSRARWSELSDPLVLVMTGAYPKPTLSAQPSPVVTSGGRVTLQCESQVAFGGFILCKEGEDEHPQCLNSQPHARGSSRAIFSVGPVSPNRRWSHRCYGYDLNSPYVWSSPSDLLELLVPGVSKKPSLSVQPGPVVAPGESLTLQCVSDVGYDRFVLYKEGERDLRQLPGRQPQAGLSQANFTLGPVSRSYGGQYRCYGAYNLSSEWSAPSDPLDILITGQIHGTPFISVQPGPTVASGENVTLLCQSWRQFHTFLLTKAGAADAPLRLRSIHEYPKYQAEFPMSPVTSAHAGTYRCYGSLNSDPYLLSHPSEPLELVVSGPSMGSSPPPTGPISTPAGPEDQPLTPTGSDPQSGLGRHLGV
T8 sequence (A6NI73 42-299 limits assumed): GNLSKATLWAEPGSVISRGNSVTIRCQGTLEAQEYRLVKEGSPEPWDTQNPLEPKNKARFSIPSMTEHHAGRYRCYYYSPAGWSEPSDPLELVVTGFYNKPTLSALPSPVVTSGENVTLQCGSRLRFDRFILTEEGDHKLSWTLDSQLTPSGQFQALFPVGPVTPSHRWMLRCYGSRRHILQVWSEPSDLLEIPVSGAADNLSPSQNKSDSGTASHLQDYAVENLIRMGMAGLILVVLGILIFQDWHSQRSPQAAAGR
T7 sequence (O75019 17-489): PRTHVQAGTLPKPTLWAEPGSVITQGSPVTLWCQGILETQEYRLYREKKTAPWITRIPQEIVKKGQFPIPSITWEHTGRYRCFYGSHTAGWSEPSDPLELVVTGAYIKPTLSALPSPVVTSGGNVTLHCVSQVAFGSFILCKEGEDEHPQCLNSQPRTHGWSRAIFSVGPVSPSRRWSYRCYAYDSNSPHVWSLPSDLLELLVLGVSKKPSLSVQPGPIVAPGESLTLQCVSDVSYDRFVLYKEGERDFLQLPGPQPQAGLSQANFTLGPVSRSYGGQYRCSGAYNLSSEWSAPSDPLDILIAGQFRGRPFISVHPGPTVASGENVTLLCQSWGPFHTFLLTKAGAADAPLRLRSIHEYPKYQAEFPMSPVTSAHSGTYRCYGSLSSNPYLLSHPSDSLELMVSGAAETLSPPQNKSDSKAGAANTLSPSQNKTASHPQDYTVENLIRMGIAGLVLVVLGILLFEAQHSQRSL
T9 sequence (P59901 24-499 limits assumed): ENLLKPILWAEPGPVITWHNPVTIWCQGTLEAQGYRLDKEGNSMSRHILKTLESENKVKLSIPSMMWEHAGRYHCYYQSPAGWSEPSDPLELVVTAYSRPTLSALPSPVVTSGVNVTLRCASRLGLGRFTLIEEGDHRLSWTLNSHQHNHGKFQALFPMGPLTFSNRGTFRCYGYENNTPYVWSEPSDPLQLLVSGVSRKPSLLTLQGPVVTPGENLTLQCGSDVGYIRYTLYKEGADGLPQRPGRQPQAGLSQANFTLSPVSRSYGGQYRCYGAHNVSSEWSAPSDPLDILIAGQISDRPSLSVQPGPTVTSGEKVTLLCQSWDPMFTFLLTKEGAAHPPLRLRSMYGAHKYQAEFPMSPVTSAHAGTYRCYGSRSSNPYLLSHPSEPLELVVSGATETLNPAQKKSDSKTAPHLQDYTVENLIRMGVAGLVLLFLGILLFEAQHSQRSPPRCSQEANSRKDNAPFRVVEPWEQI

B1: D2M002-002 (antibody, V domains shown)
VH: EVQLQQSGPELVKPGASVKMSCKASGYTFTRYVMHWVKQKPGQGLEWIGYINPNNDGTKYNEKFKGKVTLTSDKSSSTAYMELSSLTSEDSAVYYCARGDLEILPYYDHARNAMDYWGQGTSVTVSS
VL: DVQMIQSPASLSASVGETVTITCRASENIYSYLAWYQQKQGKSPQLLVYNAKTLAEGVPSRFSGSGSGTQFSLKINSLQPEDFGSYYCQHFWSTPPTFGGGTKLEIK
notes: Hit from immunised mice; also called clone #2; anti-LILRB1/2 clone #2
Take B1: the “EC50 (read off the curve)” value was approximately 0.3 µg/mL in experiment [1], approximately 0.1 µg/mL in experiment [3], approximately 0.2 µg/mL in experiment [7] and approximately 0.5 µg/mL in [11]. The EC50 in [2] came out at 0.754 µg/mL; in experiment [4] it was 5.5 µg/mL; in experiment [5], 2.85 µg/mL; in experiment [8], 12.8 µg/mL; in experiment [13], 0.218 µg/mL; in experiment [15] it was 0.258 µg/mL. In [17], this molecule had an EC50 of 0.439 µg/mL. The Kd is 5.67 nM in [6]; 2.12 nM in experiment [9]; 0.351 nM in [10]; 0.265 nM in experiment [14]; 3.45 nM in experiment [19]. In [6], this molecule registered a koff of 0.000347 s⁻¹. The molecule further displayed an association rate constant (kon) in [6] of 61300 M⁻¹ s⁻¹. In addition, the figures for the binding result in experiment [12] and in [16] were “no binding (tested: 5 µg/mL)” and “binds”, respectively. The same molecule showed a MaxMFI in experiment [13] of 110000. Further, in [17], the “gMFI (max)” value came out at 35700. In [18], this molecule displayed an IC50 of 0.208 µg/mL.
